Test results as given in the RNAGym collection of RNA variant scans (doi:10.7554/elife.90254).

B1: OR4K15 (parent)
chain: GUUAACGGUCAUAGGCCAUGGAAACUAGGAGCACCAUUUCGCUGCCAGUGAAGAAAUGAACAAAGAAAAUCUGGGCCAGGCAGGCAUCAAAAGAAAUAGUCUUGCGCUCAACCAGAAAGUCUGUAAUCAUUUUAAGGGUA

Variants of: B1
Test: self-cleavage, relative activity (ratio to wild type); higher = more cleavage; in vitro, sequencing; the parent is a self-cleaving ribozyme

In order of rising self-cleavage:
1. C32U A111G  0.01
2. G29C U108A  0.02
3. A30C A111G  0.07
4. A30U A110G  0.1
5. A30G A78G  0.11
6. A30G G75C  0.19
7. A33G A78G  0.19
8. A30U A47U  0.19
9. C32U U72C  0.2
10. A30U G115A  0.22
11. C32U A110G  0.23
12. A33G A125G  0.23
13. A30G A91G  0.24
14. G31A C105U  0.25
15. G31A A78G  0.27
16. A30C A125G  0.31
17. A30C A59G  0.35
18. C32U A78U  0.38
19. A33G A56C  0.41
20. C32U U124A  0.41
21. A30G A78U  0.41
22. A33G A92U  0.42
23. G31A A78U  0.43
24. A33G A90G  0.46
25. A33G A118U  0.47
26. C32U A78G  0.53
27. A33G U122A  0.6
28. A30U A129U  0.63
29. A33G U131C  0.63
30. C32U A55G  0.65
31. A33U A54G  0.76
32. G29A U124A  0.77
33. A30G A60U  0.79
34. C32A C128A  0.81
35. C32A U132C  0.85
36. A30G C34A  0.85
37. A33G U133C  0.88
38. A30U U39C  0.9
39. A30U A140G  0.96
40. A33U A129G  1.03
41. A30G U139C  1.03
42. A30G A55G  1.14
43. A30G A33G  1.17
44. A33G A125U  1.17
45. A30G A63U  1.17
46. A33G C34A  1.19
47. A33U A134G  1.2
48. A30G A54G  1.21
49. C32U C45G  1.23
50. A30U A129G  1.24
51. A30U A116G  1.27
52. A30G A47U  1.27
53. A33U A59G  1.28
54. G31A A52U  1.32
55. A30G A64G  1.35
56. A30G A86U  1.37
57. A33U A60G  1.38
58. A30G U87C  1.39
59. A30G A86G  1.41
60. A33C G50U  1.41
61. A33U A129U  1.42
62. A30U A118G  1.45
63. A30G U139A  1.46
64. A30U A68U  1.5
65. C32U A94G  1.5
66. A30U A55G  1.55
67. A33U A66U  1.62
68. A33U A95G  1.66
69. A30U A36U  1.67
70. A30G A91U  1.67
71. G31U A52G  1.71
72. C32U U102C  1.73
73. G31A U139A  1.78
74. A33U C34A  1.81
75. G31A U139C  1.82
76. A30U A86G  1.87
77. A33U C35U  1.93
78. G31C U133C  1.95
79. A30U U39A  2.07
80. A30U U100C  2.08
81. G31C U87C  2.1
82. C32U C121U  2.22
83. A30U G138A  2.22
